Assay results taken from patent US20180051064A1 (AJOU UNIVERSITY INDUSTRY ACADEMIC COOPERATION FOUNDATION, published 2018).
Where no end group is shown, it is not given here. Fc = antibody heavy-chain constant region Fc (hinge-CH2-CH3)

T1: NRP2-b1b2 (275-595) protein (UniProt O60462 275-595)
T1 construct: range 275-595; also called neuropilin-2 b1b2 protein
T1 sequence (looked up): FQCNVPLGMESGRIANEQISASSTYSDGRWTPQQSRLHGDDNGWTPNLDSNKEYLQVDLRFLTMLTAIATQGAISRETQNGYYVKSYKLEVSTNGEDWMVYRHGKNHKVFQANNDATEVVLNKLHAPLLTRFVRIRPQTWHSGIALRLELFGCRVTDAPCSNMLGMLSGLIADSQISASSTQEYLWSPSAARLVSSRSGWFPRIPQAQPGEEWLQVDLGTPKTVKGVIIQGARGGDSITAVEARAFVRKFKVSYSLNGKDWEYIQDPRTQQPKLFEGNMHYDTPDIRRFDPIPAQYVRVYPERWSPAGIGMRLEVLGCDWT

B1: Fc-TPP1 fusion protein (Fc fusion, not shown: a dimerising Fc or GST; small tags and cut ends)
chain: Fc-GGGGSGGGGSGGGGSHTPGNSNQFVLTSTRPPR
modifications: also: Fc letters not given here, disulfide-linked homodimer through Fc hinge
notes: Expressed in HEK293-F and purified on Protein A; disulfide-linked dimer
B2: Fc-TPP8 fusion protein (Fc fusion, not shown: a dimerising Fc or GST; small tags and cut ends)
chain: Fc-GGGGSGGGGSGGGGSHTPGIATRTPR
modifications: also: Fc letters not given here, disulfide-linked homodimer through Fc hinge
notes: as for B1
B3: synthetic peptide TPP11 not fused to Fc (peptide)
peptide: HTPGNSKPTRTPRR
modifications: also: biotinylated for ELISA, position not given here
notes: also called TPP11 peptide; synthesized TPP11 peptide

How the values were obtained:
[1] = biological target: T2, NRP1-b1b2 (273-586) protein (UniProt O14786 273-586); test: SPR (Biacore 2000), NRP1-b1b2 immobilised on CM5 chip
T2 construct: range 273-586; Prepared according to Appleton et al. 2007; Biotinylated (Sulfo-NHS-LC-biotin) for the yeast display FACS; unlabelled in ELISA and SPR; also called neuropilin-1 b1b2 protein; biotinylated NRP1-b1b2
T2 sequence (O14786 273-586 limits assumed, form in doubt): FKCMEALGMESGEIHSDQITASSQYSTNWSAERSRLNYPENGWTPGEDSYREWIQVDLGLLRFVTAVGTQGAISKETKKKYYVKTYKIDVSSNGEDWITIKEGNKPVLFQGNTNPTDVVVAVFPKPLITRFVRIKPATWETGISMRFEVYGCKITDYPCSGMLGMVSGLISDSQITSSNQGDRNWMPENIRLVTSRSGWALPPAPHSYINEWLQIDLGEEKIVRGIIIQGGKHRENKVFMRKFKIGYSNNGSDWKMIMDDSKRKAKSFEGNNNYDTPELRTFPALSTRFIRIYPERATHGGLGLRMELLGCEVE
Method: (§1) Specifically, each of NRP1 and NRP2 b1b2 proteins was diluted in 10 mM Na-acetate buffer (pH 4.0), and immobilized on a CM5 sensor chip (GE healthcare, USA) at about 1000 response units (RU). […] After binding and dissociation analysis, regeneration of the CM5 chip was performed by flushing buffer (20 mM NaOH, 1M NaCl, pH10.0) at a flow rate of 30 μl/min for 1 minute.

[2] = biological target: T1, NRP2-b1b2 (275-595) protein; test: SPR (Biacore 2000), NRP2-b1b2 immobilised on CM5 chip
Method: as §1

[3] = biological target: T2, NRP1-b1b2 (273-586) protein; test: SPR; KD on NRP2-b1b2 divided by KD on NRP1-b1b2
Method: as §1

[4] = biological target: T2, NRP1-b1b2 (273-586) protein; test: ELISA on immobilised NRP1-b1b2, absorbance at 405 nm [A]
Method: (§2) 1 μg of each of NRP1-b1b2 (273-586) protein, NRP2-b1b2 (275-595) protein and the control group VEGFR2 (46-753) was immobilized in each well of a 96-well EIA/RIA plate (COSTAR Corning In., USA) at room temperature for 1 hour, and then washed three times with 0.1% PBST (0.1% Tween20, pH 7.4, 137 mM NaCl, 10 mM Phosphate, 2.7 mM KCl, SIGMA-ALDRICH co., USA) for 10 minutes. After binding with 5% skim milk (5% Skim milk, pH 7.4, 137 mM NaCl, 10 mM Phosphate, 2.7 mM KCl, SIGMA-ALDRICH co., USA) for 1 hour, each well was washed three times with 0.1% PBST (0.1% Tween20, pH 7.4, 137 mM NaCl, 10 mM Phosphate, 2.7 mM KCl, SIGMA-ALDRICH co., USA) for 10 minutes. […] Each well was bound with AP-conjugated anti-biotin antibody (alkaline phosphatase-conjugated anti-biotin mAb, Sigma, USA), and then reacted with pNPP ([…], SIGMA-ALDRICH co., USA), and the absorbance at 405 nm was measured.

[5] = biological target: T2, NRP1-b1b2 (273-586) protein; test: SPR; lower end tied to Fc-TPP8 by Table 5 (65.8)
Method: as §1

[6] = biological target: T2, NRP1-b1b2 (273-586) protein; test: competitive ELISA on NRP1-b1b2; TPP11 peptide varied, blocked ligand RPARPAR [10 µM], relative binding (%) [B]
[7] = biological target: T2, NRP1-b1b2 (273-586) protein; test: ELISA, biotinylated peptide (100 nM) on coated NRP1-b1b2
Method: as §2

Row | Binder | Kd [1] | Kd [2] | Binding Affinity Ratio [(KD for NRP2)/KD for NRP1)] [3] | EC50 (read off the curve) [4] | fold higher affinity for NRP1 than for NRP2 [5] | IC50 (read off the curve) [6] | fold lower affinity than Fc-TPP11 [7]
1 | B1 | 1.81 nM | 1130 nM | 625 | ~0.5 nM | – | – | –
2 | B2 | 3.85 nM | 254 nM | 65.8 | ~3 nM | 60 fold | – | –
3 | B3 | – | – | – | – | – | ~2000 nM | 100 fold
